Results reported in patent publication US20150017171A1 (CHINA SYNTHETIC RUBBER, published 2015).

Experiments:
[1] = target: T1, recombinant human PLVAP51-442 protein (extracellular domain, His tag removed by thrombin) (human, UniProt Q9BX97 51-442); experiment: competition ELISA on coated recombinant PLVAP; competitor biotinylated murine KFCC-GY5
T1 construct: also called recombinant PLVAP protein; recombinant PLVAP
T1 sequence: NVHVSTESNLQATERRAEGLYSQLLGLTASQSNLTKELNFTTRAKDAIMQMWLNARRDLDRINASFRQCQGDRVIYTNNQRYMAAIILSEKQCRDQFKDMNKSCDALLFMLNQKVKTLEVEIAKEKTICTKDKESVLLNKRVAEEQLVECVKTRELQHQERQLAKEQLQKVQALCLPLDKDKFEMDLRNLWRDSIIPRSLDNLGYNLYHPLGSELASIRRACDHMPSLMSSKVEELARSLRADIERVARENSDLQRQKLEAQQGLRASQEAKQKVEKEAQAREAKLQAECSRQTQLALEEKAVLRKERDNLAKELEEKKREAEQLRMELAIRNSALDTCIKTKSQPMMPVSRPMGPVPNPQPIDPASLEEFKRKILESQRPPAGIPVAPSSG
Procedure: The binding of KFCC-GY4 and KFCC-GY5 human antibody variants to recombinant PLVAP was assessed in a competition ELISA. Either a dilution series of variant or control antibody from 30 μg/m to 0.014 μg/m (final concentration) was premixed with a constant concentration of biotinylated murine KFCC-GY4 (0.3 μg/ml, final concentration) or a dilution series of variant or control antibody from 10 μg/m to 0.004 μg/ml (final concentration) was premixed with a constant concentration of biotinylated murine KFCC-GY5 (0.1 μg/ml, final concentration) before incubating for 1 hour at room temperature on a Nunc Immuno MaxiSorp 96 well flat bottom microtitre plate (Fisher Catalogue No. DIS-971-030J) precoated with 1 μg/m recombinant “protein P” diluted in PBS. The binding of the biotinylated mAb was determined by detection with streptavidin-HRP and TMB substrate. After stopping the reaction with 3M HCl, absorbance was measured at 450 nm on a Dynex Technologies MRX TC II plate reader and the binding curves of the test antibodies compared against the mouse reference standard.
Similarly, the four lead variants of IgG4-GY5 and murine KFCC-GY5 antibodies have very similar binding profiles (FIG. 49). All of the lead variants shown are within two-fold of the original murine monoclonal antibody.

[2] = target: T1, recombinant human PLVAP51-442 protein …; experiment: Biacore T-100
His-tagged human CEACAM6 = target: T2, His-tagged human CEACAM6 (human, UniProt P40199 35-320, limits assumed); experiment: immunoblot of total protein extract of E. coli expressing the His-tagged protein
T2 construct: also called human CEACAM6 protein unrelated to PLVAP (lane 4); not shown: His tag
T2 sequence (looked up): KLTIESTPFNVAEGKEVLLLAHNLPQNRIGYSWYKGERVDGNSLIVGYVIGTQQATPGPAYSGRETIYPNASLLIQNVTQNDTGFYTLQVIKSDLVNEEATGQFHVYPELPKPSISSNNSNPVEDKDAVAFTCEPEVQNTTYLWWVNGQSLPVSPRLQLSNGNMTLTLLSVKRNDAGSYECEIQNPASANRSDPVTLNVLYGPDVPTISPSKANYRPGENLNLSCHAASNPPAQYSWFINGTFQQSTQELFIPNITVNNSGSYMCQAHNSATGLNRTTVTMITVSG
Text: (§1) Molecular weight protein standards are resolved in Lane M.

[3] = target: T3, His-tagged human PLVAP51-292 (human, UniProt Q9BX97 51-292); experiment: as above
T3 construct: also called N-terminal portion of the extracellular domain; not shown: His tag and vector residues of pET-15b
T3 sequence: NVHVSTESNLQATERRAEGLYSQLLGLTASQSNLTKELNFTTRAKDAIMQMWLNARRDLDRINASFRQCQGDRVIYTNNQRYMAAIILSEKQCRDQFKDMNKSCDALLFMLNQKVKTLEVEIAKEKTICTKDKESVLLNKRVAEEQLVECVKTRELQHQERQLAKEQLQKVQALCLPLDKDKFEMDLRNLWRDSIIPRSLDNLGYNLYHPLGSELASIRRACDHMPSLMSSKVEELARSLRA
Text: as §1

[4] = target: T1, recombinant human PLVAP51-442 protein …; experiment: ANTQ300 quartz crystal microbalance
[5] = target: T1, recombinant human PLVAP51-442 protein …; experiment: competition ELISA on coated recombinant PLVAP; competitor biotinylated murine KFCC-GY5 at 0.1 µg/ml
Procedure: The binding of chimeric KFCC-GY4 and KFCC-GY5 antibodies to recombinant PLVAP protein was assessed in a competition ELISA. Either a dilution series of chimeric or control antibody from 30 μg/ml to 0.014 μg/m (final concentration) was premixed with a constant concentration of biotinylated murine KFCC-GY4 (0.3 μg/ml, final concentration) or a dilution series of chimeric or control antibody from 10 μg/ml to 0.004 μg/m (final concentration) was premixed with a constant concentration of biotinylated murine KFCC-GY5 (0.1 μg/ml, final concentration) before incubating for 1 hour at room temperature on a Nunc Immuno MaxiSorp 96 well flat bottom microtitre plate (Fisher Catalogue No. DIS-971-030J) precoated with 1 μg/ml recombinant PLVAP protein diluted in PBS. The binding of the biotinylated mAb was determined by detection with streptavidin-HRP and TMB substrate.
Therefore, the correct variable region sequences for the parent murine monoclonal antibodies were identified and cloned.

[6] = target: T4, peptide encompassing amino acids 378 to 404 of human PLVAP, expressed by an E. coli clone of the Novatope … (human); experiment: colony blot of Novatope fragment library
T4 peptide: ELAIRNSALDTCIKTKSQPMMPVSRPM
Procedure: PCR was performed using the following thermal cycle: 94° C. for 5 min, followed by 35 cycles of 94° C. for 30 s, 56° C. for 30 s and 72° C. for 60 s. DNA was purified with the Qiaquick PCR purification kit (Qiagen, Surrey, UK) and then used in the construction of a PLVAP Novatope library according to the manufacturer's instructions (Novagen, Merck Biosciences Ltd., Beeston, UK). Briefly, purified PCR product was digested with DNAse I in the presence of Mn²⁺ and fragments between 50-150 base pairs (bp) were gel purified using a gel extraction kit (Qiagen). The DNA fragments were end-filled using T4 DNA polymerase and Tth polymerase to add a single dA residue to each 3′ end and then ligated into the pScreen 1b(+)T-vector (Novagen), which is designed to express small inserts as a carboxy-terminal fusion to the T7 bacterial phage gene 10 capsid protein. The library was transformed into NovaBlue (DE3) cells and plated onto Luria-Bertani (LB) media plates containing carbenicillin (50 μg/ml) and tetracycline (12.5 μg/m). The resulting human PLVAP cDNA library was screened (approximately 10⁴ colonies for each antibody) using the method described in the Novatope manual: Colonies expressing PLVAP fragments were transferred to nitrocellulose filters by contact with the colony for 1 min. Bacterial colonies on the filters were lysed by incubating in a sealed chloroform vapor chamber for 15 min. […]

IC50 [1]: 0.38 µg/mL
IC50 (ratio compared to GY5 mAb) [1]: 1
Kd [2]: 59.8 nM
koff [2]: 0.000414 s⁻¹
kon [2]: 6930 M⁻¹ s⁻¹
binding result (His-tagged human CEACAM6): no binding
binding result [3]: no binding
Kd [4]: 41 nM
IC50 [5]: 0.49 µg/mL
binding result [6]: binds
B1: KFCC-GY5 monoclonal antibody (murine, hybridoma ATCC PTA-9964) (antibody, mouse IgG1, V domains shown)
VH: QVQLQQPGAELVRPGASVKLSCKASGYTFTSNYINWVKQRPGQGLEWIGNIYPSDGFTNYNQKFKDRATLTVDKSSSTAYMQLSSPTSEDSAVYYCTRNFDVWGAGTTVTVSS
VL: DVVMTQTPLSLPVSLGDQASISCRSSQSLVHSNGNTYLQWYLQKPGQSPKLLIYTVSNRFSGVPDRFSGSGSGPDFTLKISRVEAEDLGVYFCSQSTHVPFTFGSGTKLEIK
notes: also called GY5 mAB; KFCC-GY5 mAb
